Results on 41 sequences are retold here after the nanobody polyreactivity screen of Harvey et al. (2022).

This series can be described thus: yeast display, Sf9 membrane polyspecificity reagent, FACS + sequencing; frameworks hold sequencing errors. Summed up: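 A synthetic nanobody library was expressed on Saccharomyces cerevisiae BJ5465 by galactose induction for 36–48 hours. The library was stained for 1 hour at 4 °C with 10% biotinylated, detergent-solubilized Sf9 membrane reagent and enriched with streptavidin microbeads before FACS. Low and high (top ~1%) gates were set on anti-HA fluorescence for expression and streptavidin fluorescence for reagent binding, and each polyreactivity label reflects the gate of origin.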
With “QVQLVESGGGLVQAGGSLRLSCAASGYTFSRYAMGWYRQAPGKERELVAAISHSAGRTYYADSVKGRFTISRDNAKNTVYLQMNSLKPEDTAVYYCATAYKPDTRDDYWGQGTQVTVSS”, the “polyreactivity (PSR sort gate)” value is reported as “high polyreactivity”. In the case of “QVQLVESGGGLVQAGGSLRLSCAASGYTFSRYAMGWYRQAPGKERELVAAITSRGGRTYYADSVKVRFTISRDNAKNTVFLQMNSLKPEDNAVYYCAADVIFWRTGYDYWGPGTQVTVSS” it was “high polyreactivity”; in that of “QVQLVESGGGLVQAGGSLRLSCAASGYTFTHYAMGWYRQAPGKERELVASISQSGGSTYYPDSVKGSFTISRDNAQYTVYGQMNSLKPEDTAVYYCAVDYYYDQSLYEYCGQGTQVTVSS”, “high polyreactivity”; in that of “QVQLVESGGGLVQAGGSLRLSCAASGYTFTSNAMGWYRQAPGKERELVAAISRSGVSTSYADSVKGRFTISRDNAKNTVYLQMNSLKPEDSAVYYCNRYYWDPTHPRYDSWGQGTQVTVSS”, “high polyreactivity”. On to “QVQLVESGGGLVQAGGSLRLSCAASGYTFTSNAMGWYRQAPGKERELVADISTGVDSTYYADSVKGRFTISRDNAKNTVYLQMNSLKPEDTAVYYCNADILVAWYDEPFDYWGQGTQVTVSS”, for which the “polyreactivity (PSR sort gate)” value is recorded as “low polyreactivity”.

In the case of “QVQLVESGGGLVQAGGSLRLSCAASGYTFVWYAMGWYRQAPGKERELVAAISASGGSTYYADSVKGRFTISRDNAKNTVYLQMNSLKPEDTAVYYCNAVGALSVYGGNGYWGQGTQVTVSS”, the “polyreactivity (PSR sort gate)” value is “high polyreactivity”. In the case of “QVQLVESGGGLVQAGGSLRLSCAASGYTFWQYAMGWYRQAPGKERELVATITSRGGSTYYADSVKGRFTISRDNAKNTVYLQMNSLKPEDSAVYYCNARRRYSTRRSDYWGQGTQVTVSS”, the “polyreactivity (PSR sort gate)” value was “high polyreactivity”. In the case of “QVQLVESGGGLVQAGGSLRLSCAASGYTFYANAMGWYRQAPGKEREFVASITWSGGSTYYADSVKGRFTISRDNAKNTVYLQMNSLKPEDTAVYYCNTDLTYPYPNVEVLVYGFKLDYWGQGTQVTVSS”, the “polyreactivity (PSR sort gate)” value is recorded as “low polyreactivity”. In the case of “QVQLVESGGGLVQAGGSLRLSCAASGYTFYANAMGWYRQAPGKEREFVASNTWSGGSTYYADSVKGRFTISRDTAKITVYLQMNSLKPEDTAVYYWAAESWFNYDYWGQGTQVTVSS” it was “low polyreactivity”; in that of “QVQLVESGGGLVQAGGSLRLSCAASGYTFYIYAMGWSRQAPGKERELVATISSSGGGTYYADSVKGRFTISRDNAKNTVYFQMYSQKPEDTAVYDCNAAGWYWQAEGYDYWGQGTQVTVSS”, “low polyreactivity”; in that of “QVQLVESGGGLVQAGGSLRLSCAASGYTFYKYAMGWYRQAPGKEREFVADITQSGGSTYYADSVKGRFTISRDNAKNTVYLQMNSLKPEDTAVYYCNAAYSYRPDPKGYDYWGQGTQVTVSS”, “low polyreactivity”. In the case of “QVQLVESGGGLVQAGGSLRLSCAASGYTFYRYAMGWYRQAPGKERELVARISRSGGSTFYADSVKGRFTISRDNAKNTVYLQMNSLKPEDTAVYYCNAKQYSPYYLVIYHYWGQGTQVTVSS” it was “high polyreactivity”.

For the sequence “QVQLVESGGGLVQAGGSLRLSCAASGYTFYRYTMGWYRQAPGKERELVAAINSGGSTNYADSLKGRFTISRDNAKYTVYLQMNSLKPEDTAVYYCARRYQTWPRWYDYWGQGTQVTVSS”, the “polyreactivity (PSR sort gate)” value is reported as “high polyreactivity”. “QVQLVESGGGLVQAGGSLRLSCAASGYTIDGYAMGWYRQAPGKERELVAGISSAGTTNYADSVKGRFTISRDNAKNTVYLQMNSLKPEDTAVYYCNKDYSTYWLYTWQITVADDYWGQGTQVTVSS”: the “polyreactivity (PSR sort gate)” value was “low polyreactivity”. With “QVQLVESGGGLVQAGGSLRLSCAASGYTIISYGMGWYTQAPGKERELVAAISSGDRTNYADSVKGRFTISRDNAKNTVYLQMNSLKPEDTAVYYCNADRASSSVGYSDEFGHDSWGQGTQVTVSS”, the “polyreactivity (PSR sort gate)” value is “low polyreactivity”. Regarding “QVQLVESGGGLVQAGGSLRLSCAASGYTINPYAIGWYRQAPGKERELVATIRSSGSTNYADSVKGRFTISRDNAKYTVYLQRNSLKPEDTAVYYFAARTSGRTVRYYYWGQGTQVTVSS”, the “polyreactivity (PSR sort gate)” value is “high polyreactivity”. For “QVQLVESGGGLVQAGGSLRLSCAASGYTIRNYAMGWYRQAPGTERELVAAIRGSGGSTYYADSVKGRFTISRDNAKNTVYLQMNSLKPEDTAVDYCNADQLVWQRYGVLYEYDYWGQGTQVTVSS”, the “polyreactivity (PSR sort gate)” value is listed as “high polyreactivity”.

For the sequence “QVQLVESGGGLVQAGGSLRLSCAASGYTLSVNAMGWYRQAPGKERELVATIDFGGGSTYYADSVKGRFTISRDNAKNTVYLKMNSLKPEDTAVYYCNTEWTSLSKSSLGGRYDHWGQGTQVTVSS”, the “polyreactivity (PSR sort gate)” value is on record as “low polyreactivity”. Consider “QVQLVESGGGLVQAGGSLRLSCAASGYTLVGYAMGWYRQAPGKEMELVAVISGSGGSTRYADSVKGRFTISRDNAKYTVYLQMNSLNPEDTAVYYCAARQPRTQAVYEGYYWGQGTQVTVSS”, for which the “polyreactivity (PSR sort gate)” value was “high polyreactivity”. Then “QVQLVESGGGLVQAGGSLRLSCAASGYTVYANAMGWYRQAPGKEREFVASITWSGGSTYYADSVKGRFSISRDNAKNPVYLQMNSLKPEDTAVYYCAAESWFKYDYWGQGTQVTVSS”, with “low polyreactivity”. Then “QVQLVESGGGLVQAGGSLRLSCAASNSSINAMGWYRQAPGKERELVAAIRWSGSSTYYADSEKGRFPISRDNAKTTVYLQMNSLKPEDTAVYYCAADTTTGDRGFDYWGQGTQVTVSS”, with “high polyreactivity”; and “QVQLVESGGGLVQAGGSLRLSCAASRFIFQPYAMGWYRQAPGKERELVAAITSRGGRTYYADSVKGRFTISRDNAKNTVYLKMNSLKPEDSAVYYCNADIYASEYYYWGQGTQVTVSS”, with “low polyreactivity”; and “QVQLVESGGGLVQAGGSLRLSCAASRFTFLTNAMGWYRKAPGTERELVAAISSGGNTNYADSVKGRFTISRDNAKNTVYLQMNSLKPEDTAVYYCAADNDYLSSQVSYDYWGQGTQVTVSS”, with “low polyreactivity”. As to “QVQLVESGGGLVQAGGSLRLSCAASRFTFVRYAMGWYRQAPGKEREFVASISARGGNTFYADSVKGRFTISRDNAKNTVYLQMNSLKPEDTAVYYCAASRRVGEVSYYYWGQGTQVTVSS”, the “polyreactivity (PSR sort gate)” value is reported as “high polyreactivity”.

In the case of “QVQLVESGGGLVQAGGSLRLSCAASRFYTMGWYRPAPGKERELVAAISWSGGDTYYADSVKGRYTISRDNAKNTVYLQMNSLKPEDPAVFYCNKDYSFEYSLRHRDYWGQGTQVTVSS”, the “polyreactivity (PSR sort gate)” value is listed as “low polyreactivity”.

Take “QVQLVESGGGLVQAGGSLRLSCAASRIFAYYTMGWIRQSPGKERELVAAITYSGGSTFYADSVKGRFTISRDNAKNTVYLQMNRLKPEDSSVYYCNAVVRNYGYDYWGQGTQVTVSS”: the “polyreactivity (PSR sort gate)” value is recorded as “high polyreactivity”. For the sequence “QVQLVESGGGLVQAGGSLRLSCAASRIFRGYAMGWYRQAPGKERELVAAIDRGVSTYYADSVKGRFTISRDNAKNTVYLQMNSRKPEDTAVYYCAVEYWEPYDMDYWGQGTQVTVSS”, the “polyreactivity (PSR sort gate)” value is “high polyreactivity”.

“QVQLVESGGGLVQAGGSLRLSCAASRLIVYQNAMGWYRQAPGKEREFVAAISWSGGRTYYADSVKGRFTISRDNAKNTVYLQMNSLKPEDTAVYYCAARFTYYTYEFEYWGQGTQVTVSS”: the “polyreactivity (PSR sort gate)” value is listed as “high polyreactivity”. With “QVQLVESGGGLVQAGGSLRLSCAASRLTFQQYAMGWYRQAPGKERELVAAITSDGASTNYADSVKGRFTISRDNAKNTVYLQMNSLKPEDTAVYYCAARRSSRQYRYDYWGQGTQVTVSS”, the “polyreactivity (PSR sort gate)” value was “high polyreactivity”. In the case of “QVQLVESGGGLVQAGGSLRLSCAASRLTFVGYAMGWYRQAPGKETALVAALTSSGGGTYYADSVKGRFTISRDNAKNPVYLQMNSLKPQDTALYYCAKVTRGSQYDYWGQGTEVTVSS” it was “low polyreactivity”.

In the case of “QVQLVESGGGLVQAGGSLRLSCAASRRIFYAYAMGWYRQAPGKEIELLATITGIGGSTYADSVKGRFTISRDNAKNTVNLQMNSLKPEDTAVYYCNAERGVYWGRYPYKYDYLGQGTQVTVSS”, the “polyreactivity (PSR sort gate)” value was “low polyreactivity”. In the case of “QVQLVESGGGLVQAGGSLRLSCAASRRIIYRSAMGWYRQAPGKERELLAAITSGDSTYYADSVKVRFTISRDNSKNTVFLQMNSLKPEDTAVYYCAADYLSRSPAYEHYYWGQGTQVTVSS” it was “high polyreactivity”; in that of “QVQLVESGGGLVQAGGSLRLSCAASRRTFANYAMGWYRQAPGKERELVAAISRSGGSTYYADSVKGRFTISRDNAKNSVYLQMKSLKPEDTAVYYCAARYVRQYYRAEDYWGQGTHVTVSS”, “high polyreactivity”.

“QVQLVESGGGLVQAGGSLRLSCAASRRTFSYNTMGWYRQAPGTERELVARITWGGGSTNYADSVKGRFTISRDNAKNTVYLQMNSLKPEDTAVYYCAAGPSVPYGPQKVDYWGQGTQVTVSS”: the “polyreactivity (PSR sort gate)” value was “low polyreactivity”. Then “QVQLVESGGGLVQAGGSLRLSCAASRSIFGYNAMGWYRPAPGKEREFVAAIRWSSGSTYYADSVKGRFTISRDNAKNTVYLQMNSLKPEDTAVYYCATRQTYLYLGQGTQVTVSS”, with “high polyreactivity”. For the sequence “QVQLVESGGGLVQAGGSLRLSCAASRSIFRIYAMGWYRQAPGKERELVAGISKSGGSTYYADSVKGRFTISRDNAKNTVYLQMNSLKPEDTAVYYCNAGYNWSGLAVGRYGYDSWGQGTQVTVSS”, the “polyreactivity (PSR sort gate)” value is reported as “low polyreactivity”.

As for “QVQLVESGGGLVQAGGSLRLSCAASRSTFFHYAMGWNRQAPGKERELVAAISSDGITNYADSVKGRFTISRDNAKNTVYLQMNILIPEDTAVYYCNAETVSTVGLGYWGQGTQVTVSS”, the “polyreactivity (PSR sort gate)” value is “low polyreactivity”. In the case of “QVQLVESGGGLVQAGGSLRLSCAASRSTFNYYTMGWYRQAPGKERELVAAISRGGSTYYADSVKGRFTISRDNAKNTVYLQMNSLKPEDTAVYYCAATVYPRYFRKYDYWGQGTQVTVSS” it was “high polyreactivity”; in that of “QVQLVESGGGLVQAGGSLRLSCAASRSTFPKYAMGWNRKAPGKERELVASISVTTGSPYYADSVKGRFTISLDNAKNTVYLQKNSLKPEDTAVYYCAKRTYSRKFRGAYNYWGQGTQVSVSS”, “high polyreactivity”; in that of “QVQLVESGGGLVQAGGSLRLSCAASRSTFRYYTMGWYRQSPGKERELVARISRSGGSTYYADSVKGRFTISRDNAKNTVYLQMNSLKPEDTSVYYCAALYYVKPGQRYDYWGQGTQVTVSS”, “high polyreactivity”. In the case of “QVQLVESGGGLVQAGGSLRLSCAASRSTFSDNAMGWYRQAPGKERELVAAISRSGGSTYYADSVKGRFTISRDTAKNTVYLQMNSLKPEDTAVYYCATKRVLTGYDSWGQGTQVTVSS” it was “high polyreactivity”.
